The results in this text go back to US20070172455A1.

Assay [1] addresses gp130 on F10.9 melanoma cells (UniProt Q00560). The assay is described as follows: cell-based or functional assay.
The target of assay [2] is soluble form of gp130 (sgp130) (human) (UniProt P40189). The assay is described as follows: plate binding assay on sgp130 captured by anti-human gp130 mAb; rhuIL-6 at 500 ng/ml with sIL-6RδVal at 2 to 500 ng/ml, detected with rabbit anti-IL-6R; Scatchard plot.
soluble form of gp130 (sgp130) (human), sequence (P40189 23-619 limits assumed): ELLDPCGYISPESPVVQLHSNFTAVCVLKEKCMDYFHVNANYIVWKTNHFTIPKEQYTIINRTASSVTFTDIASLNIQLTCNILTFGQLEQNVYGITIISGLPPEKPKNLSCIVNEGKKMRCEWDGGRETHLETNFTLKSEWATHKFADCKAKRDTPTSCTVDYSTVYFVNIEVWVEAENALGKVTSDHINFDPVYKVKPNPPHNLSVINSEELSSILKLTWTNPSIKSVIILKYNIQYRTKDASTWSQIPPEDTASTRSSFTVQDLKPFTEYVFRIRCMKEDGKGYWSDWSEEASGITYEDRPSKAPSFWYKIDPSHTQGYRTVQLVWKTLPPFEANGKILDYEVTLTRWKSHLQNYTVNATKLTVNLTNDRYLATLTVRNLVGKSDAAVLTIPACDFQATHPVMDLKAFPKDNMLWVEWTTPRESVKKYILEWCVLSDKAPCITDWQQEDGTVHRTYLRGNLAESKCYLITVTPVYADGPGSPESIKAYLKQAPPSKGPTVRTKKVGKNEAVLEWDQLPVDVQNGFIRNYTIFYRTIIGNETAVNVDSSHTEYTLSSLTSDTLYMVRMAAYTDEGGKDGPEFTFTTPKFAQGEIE

gp130 on F10.9 melanoma cells, sequence (Q00560 23-917 limits assumed): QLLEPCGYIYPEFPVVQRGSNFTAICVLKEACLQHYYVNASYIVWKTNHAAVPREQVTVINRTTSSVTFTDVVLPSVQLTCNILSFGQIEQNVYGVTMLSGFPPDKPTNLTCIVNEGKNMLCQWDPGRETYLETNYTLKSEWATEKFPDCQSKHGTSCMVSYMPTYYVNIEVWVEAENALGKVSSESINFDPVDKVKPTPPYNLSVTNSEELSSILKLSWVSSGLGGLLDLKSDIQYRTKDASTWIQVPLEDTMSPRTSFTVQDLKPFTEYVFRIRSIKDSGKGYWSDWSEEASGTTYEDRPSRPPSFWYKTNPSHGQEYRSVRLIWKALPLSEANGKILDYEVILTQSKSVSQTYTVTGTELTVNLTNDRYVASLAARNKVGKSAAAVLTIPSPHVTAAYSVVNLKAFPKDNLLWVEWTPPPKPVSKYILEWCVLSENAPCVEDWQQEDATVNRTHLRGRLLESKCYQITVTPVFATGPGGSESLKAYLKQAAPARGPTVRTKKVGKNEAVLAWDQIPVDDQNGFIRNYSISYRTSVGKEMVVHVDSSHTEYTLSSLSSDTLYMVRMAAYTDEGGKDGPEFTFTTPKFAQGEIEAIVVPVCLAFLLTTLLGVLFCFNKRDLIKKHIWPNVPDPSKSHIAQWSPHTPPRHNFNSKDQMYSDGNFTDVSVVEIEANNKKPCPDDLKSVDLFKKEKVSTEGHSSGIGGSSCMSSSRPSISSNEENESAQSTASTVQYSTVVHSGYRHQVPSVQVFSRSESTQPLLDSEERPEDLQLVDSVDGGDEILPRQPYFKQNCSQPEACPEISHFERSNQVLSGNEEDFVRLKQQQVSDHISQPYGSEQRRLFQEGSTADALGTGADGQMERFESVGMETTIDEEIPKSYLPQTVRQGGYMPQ

Usually Kd stands for the equilibrium constant for the complex coming apart. Regarding “mixture of human IL-6 and sIL-6R (rhuIL-6 together with human sIL-6RδVal) (from UniProt P08887 20-356; P05231 29-212)”, in assay [1], the maximal inhibition of F10.9 cells (growth inhibition, crystal violet, 4 days); IL-6 concentration in the mixture was 7.5 nM and the maximal inhibition of F10.9 cells (growth inhibition, crystal violet, 4 days); sIL-6RδVal concentration in the mixture was 2 nM. Besides, the equilibrium dissociation constant (Kd) in assay [2] was found to be 0.26 nM.
